Laboratory results reported in the RNAGym collection of RNA variant scans (doi:10.7554/elife.80360).

B1: Hairpin Ribozyme (parent)
chain: GUCCUCUUUCACGUGCGCGUGAAAGAGAGAAGUGAACCAGAGAAACACACGUUGUGGUAUAUUACCUGGUA

Variants of: B1
Test: self-cleavage, relative activity (ratio to wild type); higher = more cleavage; co-transcriptional

| Variant | self-cleavage |
| --- | --- |
| G19U C37G | 0.341 |
| C18G G25A | 0.578 |
| C18U G32U | 0.118 |
| C18U G32A | 0.124 |
| U20A C38A | 0.168 |
| G19A C48A | 0.136 |
| C18G A64C | 0.158 |
| C18G A64G | 0.463 |
| C18G A64U | 0.18 |
| U20A A47C | 0.293 |
| C18U G21C | 0.883 |
| C18U G21U | 0.814 |
| C18U G21A | 0.833 |
| G19C C46U | 0.229 |
| G19C C46G | 0.088 |
| G19U C48U | 0.162 |
| G19A G42U | 0.331 |
| G19U A59C | 0.242 |
| C18U G29A | 0.194 |
| U20A A64U | 0.135 |
| G19C G25U | 0.623 |

| Variant | self-cleavage |
| --- | --- |
| G19C G25A | 0.512 |
| C18A G40C | 0.0959 |
| C18G G29A | 0.133 |
| C18G A26U | 0.512 |
| C18G C38G | 0.125 |
| C18G C38A | 0.11 |
| C18A G68U | 0.239 |
| C18G U60C | 1.02 |
| C18G U60A | 0.9 |
| C18G U60G | 0.483 |
| G19A G69U | 0.213 |
| U20A A41U | 1.16 |
| U20A A41C | 1.28 |
| C18G A43C | 0.122 |
| C18G A43U | 0.0776 |
| C18A U20G | 0.946 |
| C18A U20A | 0.917 |
| C18A G34A | 1.33 |
| G19U A61U | 0.183 |
| C18G A41U | 0.906 |
| C18G A41G | 0.555 |

| Variant | self-cleavage |
| --- | --- |
| C18A C66G | 0.113 |
| C18A C66A | 0.258 |
| C18A C66U | 0.594 |
| G19U U63C | 0.164 |
| C18G A61C | 0.201 |
| C18G A61G | 0.152 |
| C18U C50U | 0.326 |
| C18U A71C | 1.33 |
| C18U A71G | 1.09 |
| C18U G56C | 0.179 |
| C18U G56U | 0.115 |
| C18A U62A | 0.204 |
| C18A U62C | 0.22 |
| C18A U62G | 0.138 |
| G19U C65U | 0.306 |
| C18G G42C | 0.255 |
| C18A U70C | 0.952 |
| G19C A36C | 0.374 |
| C18G A59C | 0.224 |
| C18G U67G | 0.275 |
| C18U G40U | 0.244 |

| Variant | self-cleavage |
| --- | --- |
| C18U G40A | 0.265 |
| G19A A24C | 0.615 |
| G19A G21A | 0.659 |
| C18A G51A | 1.01 |
| G19U G42C | 0.492 |
| G19A A64U | 0.198 |
| G19C C65A | 0.877 |
| G19C C65G | 0.25 |
| C18U U20G | 1.13 |
| G19U U53G | 0.772 |
| G19U U53A | 0.971 |
| G19U U53C | 0.952 |
| G19A A44C | 0.0966 |
| U20A A31U | 0.148 |
| C18A C65A | 0.957 |
| U20A A59U | 0.144 |
| C18U A47U | 0.178 |
| C18A G19A | 0.886 |
| G19U G21U | 0.784 |
| C18G G68U | 0.171 |
